From the DeepSol protein solubility set

Assay: soluble on expression in E. coli; label from the status in PepcDB or PDB records

MSLKQQLIKNGLVLDMKGNHKPQAKDILIEGKWIRDIRPNIEPEVDTEIIDAEGKIVMPGFVDTHRHVWESLLRHIGTDWTLLTYLDNLYYGNLGSMLTPEDSYIANLWGALEAIDAGVTTVLDWSMLETPEHADASIKGLQAAGIRAVFAHGTPGYETYWSRDSEVRHPKDAKRVKKEYFQSDDQLLTMALAIRGPEFSSWEVTLDDIQLARELDAIASMHIGFGTWGPHDRSITRMREAGLLDSDLNLVHVNRIQPHEYEYIAESGASLSVTPEVEMMMGHGYPATGYLHKHRGLVTLGVDVVVATAGDMFAQMKFALQAERAWQNEQRLDRGEMPEQLKMTTNDVLTFATLNGAKALKLDDKIGTLDVGKEADLLLINPSSFNLFPLNHEPVGAVVQSARPENVDSVFIAGRPVKRHGKLLFDDLDGLRNKVLAASEAVFHRQAAKNEGHHHHHH
soluble on expression in E. coli: soluble

MGSDKIHHHHHHMASMFNRVPPLHLLVAFEAAARLGSFARAAEELSVTPSAVSHRIKNLEELWGEDLFVRSNAALRLTAAGTRYLRNVQDALKSLNELARPEYNKMRTRLRVAIPPTFGRQHLVPRLPEFGALYPHIDIELHLAIPFLDVKAEDTDVEIRYGTGRYPDLKTTKLLVEPVFPACGREYYERVNGRAITKPEHLHGLVLLRSPLEPWKPWFETAGLDWPEPQTGPQLNDIGLMLEAVASNQGVALVRQRMARHWLSLGQMVRLLDIESVSPHGYYIVEREQAPLKPEARYFVDWLLSLDW
soluble on expression in E. coli: not soluble

MGSDKIHHHHHHMKKLLAIGILCIMVTAVMSGCVSEKEININNSNKITTNMPVSEKNITKILKYAKNMNLIYYDENGNIVNPYNGDKWKYKVFIDATGQKFLLKNKDDPVPSWAKEKLGDNFKVINVPLTRVIVMSSTEIALMEAINDDGSVIGSVKGIMWGKSYKWYFKDINKSLAEGKIIDVGSSSNPNWDKIIEINPQVIFVYPGYDGDKIIAKCKELGITYVADAEYLENDPLGRCEWVKMFAAFYNKEPEAKRYFEKVEDNCLKVINKTKNCPKVTVAWGYNSQWGCYVPENNSYVAKEIMFYCNGDYIFKDLNGTGSAKINYETFAERAKDADVWVVPSSTAWLSTFKEDNPGYETFKAVKNGRVFCESDDYWQLGLLKTDEVIMDLATILHPEAFKGRKTHFFLKYNIENNTATPFIAK
soluble on expression in E. coli: not soluble

MLSLNLPVFDTKINVRNGKNVIFDVIRKRYVALTPEEWVRQHFVHFLIAHKGYPNALLANEVMVKLNGTTKRCDTVLYRRDLSARMIVEYKAPHIEITQAVFDQITRYNMVLKVDYLIVSNGMQHYCCRMDYAHQSYTFLQDIPDYNAL
soluble on expression in E. coli: not soluble

MQITLARIDDRLIHGQVTTVWSKVANAQRIIICNDDVFNDEVRRTLLRQAAPPGMKVNVVSLEKAVAVYHNPQYQDETVFYLFTNPHDVLTMVRQGVQIATLNIGGMAWRPGKKQLTKAVSLDPQDIQAFRELDKLGVKLDLRVVASDPSVNILDKINETAFCE
soluble on expression in E. coli: soluble

MGSDKIHHHHHHMTRSFYWVDHSTQTFAERDLSKTVVVLPIAAVEQHGPHLPVDVDAAINAEIIRRTVARLQPDTDVLFLPPMMVGKSDEHIAFPGTLAISGETLRHVWLDLARSVKRAGAAKLILFNSHGGQMALMDIVCRDIRIELGMLAVSCSWFRIAPVEDLFSRAEIDHGIHGGDIETSMMLAIAPERVAMDKAENFVPLTVAIEKSGSMLTAEGAVGFGWQAQDLHPAGVCGNASNATAQKGQIVLDRAADGLVSLIAATQAFDLSQLTSQTRFSNLCRARRIP
soluble on expression in E. coli: not soluble

MSLVEMVNRPYASAFEAFAVKNPDVLCLSADLTSSCEIDGFRDRHPDQFLSLGMAEQNMMSFAGGLGLAGYRPFLHSFGVFLYRRPYDQLMASVAYPRRKVRLMGFLPGITTPGGMTHQAIEDVAVMRSIPNMSILETGDATEVESICEAADSIDGPVYCRVLRGSIPRLFDTPIRVGEMRELALGADVLVVTSGIATEEALRARDALSNAGVSIRHLHIHTIKPFNEQALLDHIGSVSKGVVVLENHVITGGVGSLVAEIMADNGVGKPLVRLGLNDTYAHGGSRGYLMKHYGLDAGALVRGIERIIGASTGIDEEALASARVDAVHSAVKAEAEGHHHHHH
soluble on expression in E. coli: not soluble

MGNKAERHRAIQEIVRREEIGTQKELVERLRQLGFEVTQATVSRDIAELGLARIALGKGRHRYVLPAADLPENAYEELKRQFGLFVRDVDRGGNLLVVKTAEGHASGIAYLLDRLRRDEIVGTLAGDDTILVVARTEEAAQALEDEFAGLLVEGRALRRALSGS
soluble on expression in E. coli: soluble

MIGELVKDKILIKNIEDARLIYKMGYYGKPIGISKPKSAEEINSELILSLIEGVYLVKKGKLEIVSNGERLDFERLYQIGVTQIPRFRILYSVYEDLREKGYVVRSGIKYGADFAVYTIGPGIEHAPYLVIALDENSQISSNEILGFGRVSHSTRKELILGIVNLTNGKIRYIMFKWLKM
soluble on expression in E. coli: soluble

MAMQMQLEANADTSVEEESFGPQPISRLEQCGINANDVKKLEEAGFHTVEAVAYAPKKELINIKGISEAKADKILAEAAKLVPMGFTTATEFHQRRSEIIQITTGSKELDKLLQGGIETGSITEMFGEFRTGKTQICHTLAVTCQLPIDRGGGEGKAMYIDTEGTFRPERLLAVAERYGLSGSDVLDNVAYARAFNTDHQTQLLYQASAMMVESRYALLIVDSATALYRTDYSGRGELSARQMHLARFLRMLLRLADEFGVAVVITNQVVAQVDGAAMFAADPKKPIGGNIIAHASTTRLYLRKGRGETRICKIYDSPCLPEAEAMFAINADGVGDAKD
soluble on expression in E. coli: soluble

MGSDKIHHHHHHMGVTCVSQMPVAEGKSVQQTVELLTRKLEMLGAEKQGTFCVDCETYHTAASTLGSQGQTGKLMYVMHNSEYPLSCFALFENGPCLIADTNFDVLMVKLKGFFQSAKASKIETRGTRYQYCDFLVKVGTVTMGPSARGISVEVEYGPCVVASDCWSLLLEFLQSFLGSHTPGAPAVFGNRHDAVYGPADTMVQYMELFNKIRKQQQVPVAGIR
soluble on expression in E. coli: not soluble

MGSDKIHHHHHHMGLLYRETYEVPFYESDTNHYMKLPQLLALALQISAKQSLKLGIGDDIVFKRYGLVWVVTDYIIDIERLPKHAEKIVIETEAKAHNKLLCYRYFYIYGEDGQKIITISSAFVLMDFKTRKIHPVLDDITSIYQSQRIKKVIRGPKYHPIGDSKVKQYHVRYFDLDMNGHVNNSKYLEWMYDVLDLDFLSSHIPKKIDLKYIKEIQYGTDIKSHWYQDGLVTRHDIIGGDAIHAQARIEWQEKKED
soluble on expression in E. coli: not soluble

MAGNSIGQFFRVTTFGESHGIALGCIIDGVPPGIPITEADIQLDLDRRRPGTSRYTTQRRELDQVRILSGVFEGVTTGTSIGLMIENTDQRSQDYSAIKDVFRPGHADYTYEQKYGVRDYRGGGRSSARETAMRVAAGAIAKKYLAQKFGVQVRGYLAQMGDVSCDLLDWDLVEQNPFFCPDASKLEPLDALMRELKKAGDSIGAKITVVAENVPVGLGEPVFDRLDADLAHALMSINAVKGVEIGDGFAVVTKRGSENRDEITPQGFQSNHAGGILGGISSGQPVVAHIALKPTSSIMVPGQTINRQGEAVEMVTRGRHDPCVGIRAVPIAEAMMAIVLMDHLLRQRAQCGDVASDVPRW
soluble on expression in E. coli: not soluble

MGSDKIHHHHHHMEIEAVEKEAIEKLSKISNVQELESFRIEFLGKKGKITGLMKNLKNLPPEERPAYGKRVNELREKIEKLFEEKRQQIQRILEQEKMEKMRIDVTVPGARRKLGHSHPVLKVMEEIERIFVSMGFDVVEGPEIETTWHNFDALNTPEWHPARDEHDSFYITDDLLLRTHTSPVQIRTMLERKPPIAIISPGKVYRRDYDATHLPMFHQVEGLHVDRDLSVAHLKFTLEEFARRMFGEGAKVRLRPSFFPFTEPSFEVDVYLSGYGWLEILGAGMVDPNVFLNVGYDPEEWTGYAFGMGVERIAMLKYGIADIREFVRNDVRFLSSY
soluble on expression in E. coli: not soluble

MSLESGFLEDAQANLTLRNFYFNRNFTNPTKAQGKAEEWTQSFILDAKSGFTQGTVGFGMDVLGLYSLKLDGGKGTGGTQLLPLDHDGRPADNFGRLGVAFKARLSQTEVKVGEWMPVLPILRSDDGRSLPQTFRGGQITSKEIAGLTLYGGQFRANSPRDDSSMSDMSMFGKAAFTSDRFNFQGAEYAFNDKRTQIALWNAQLKDIYSQQFINLIHSQPLGDWTLGANLGFFYGKEDGSARAGDMENRTWSGLFSAKYGGNTFYVGLQKLTGDSAWMRVNGTSGGTLANDSYNASYDNAKEKSWQVRHDYNFAALGVPGLTLMNRYISGSNVHTATVSDGKEWGRESEVAYTVQSGTLKNLNLKWRNSTMRRDFSNNEFDENRLIISYPLSLLEGHHHHHH
soluble on expression in E. coli: soluble

MPGNHSEISLNEQNRVDDNDTKTKTTTRKKKKKKDVTIVDDDDNQFDTTNQLVKSKNRFLGKFRKKPKSPKRWSGSRKGGCFRVMRPRRREGGDDDSSVSSPVSDPNDERFSHEMLRVMLETNDFCSDECNPHR
soluble on expression in E. coli: soluble

MRSERSERSDDTDGDTTALALKILVAGGFGVGKTTLVGAVSEIRPLRTEELLSEAGRLVDDTDGIDRKVTTTVAMDFGRITIRSGLSLYLFGTPGQDRFWFLWDELAQGALGAVVLADTRRLADCFPAVDYFEHRHIPFVVAVNCFTGARRHDEYSVLRALDLDPGTPVVLCDARDRDSGKEVLIRLVEYAGRMHTARLLDSVRLEHHHHHH
soluble on expression in E. coli: not soluble

MGSDKIHHHHHHMAKLYFNYSTMNAGKSTVLLQASHNYRERGMQTYLMTAAIDGRAGTGRIASRIGIGAEADIFTPRDDVFAMIRDRLGAGPVACVFVDEAQFLSPEQVWQLARVVDDLDVPVLAYGLRVDFQGKLFPGSATLLALADEMREVRTICKCGRKATMVIRQDASGRAITEGAQVQIGGNETYVSLCRKHWREATGDPGAKGH
soluble on expression in E. coli: not soluble

MGNAGESKKSNSDSAKGEEKASGSLTISGSSAMQPLVLAAAEKFMEENPDADIQVQAGGSGTGLSQVSEGAVQIGNSDVFAEEKEGIDAKALVDHQVAVVGMAAAVNPDAGVKDISKDELKKIFTGKIKNWKELGGKDQKITLVNRPDSSGTRATFVKYALDGAEPAEGITEDSSNTVKKIIADTPGAIGYLAFSYLTDDKVTALSIDGVKPEAKNVATGEYPIWAYQHSYTKGEATGLAKEFLDYLKSEDIQKSIVTDQGYIPVTDMKVTRDANGKQSLEHHHHHH
soluble on expression in E. coli: not soluble

MSLAADTLRIKQLQRCGDLFSDSQQRWCLCAEGLRANLPTVWLGGTRLSEADIERQGDRLTLKLARQAQRSAPLWLADGGRTSNPVWLTRQRSHVIAAGPDEVAKNMDGLTTYVDLVSLLIEEKYDGLGEARRIAGKYGAQVVGAIPPLNVYQLRLPVEDLVQRDAMVLRMGSEVSVDAVIVEESAPERGEEGNGRGTRAIDQADEWAANRFMDALYFYRRRIAASGLPVKPVRVGVIEREVDFDAPGFSHYRGGCEQGQTCLYARDGNRPASHGSHVAGILAAQGEGFLPGLGKHSPGFEVMVERNSDAGITANIAASVNLVEDGVRVLNWSWGIHRVGARDVNGDEVDSLVRSGLAMSGYEELLEEFFLWLRKEHPDVVVVNSAGNGASWSGTDEYRLPSSFITEQLLVVGGHQRSGKATAVEAHDHVRKRHSSNIDMRVDVSAAACIRPVSAEAAHCGTSYATPLVTATVATMLSINPALTPEQVRMLLRRSALTLGAEQDFEAMDAEDLTAPILPSERGGRLNDPDLGRSARLDMQRALDLAVQSLERVREGHHHHHH
soluble on expression in E. coli: not soluble
